Data reported in patent US20250136695A1.

Legend:
[1] = molecular target: PDL1 expressed on recombinant CHO cells (CHO-K1/PDL1; aAPC CHO-PDL1) (UniProt Q9NZQ7)
PDL1 (Fc-cut) antigen [2] = molecular target: PDL1 (Fc-cut) antigen (UniProt Q9NZQ7); assay: ELISA on coated PDL1 (Fc-cut), VHH secondary antibody; PBS blank 0.181 / 0.212
PDL1 (Fc-cut) antigen [3] = molecular target: PDL1 (Fc-cut) antigen (UniProt Q9NZQ7); assay: ELISA on coated PDL1 (Fc-cut), IgG (H+L) secondary antibody; PBS blank 0.121 / 0.102

Chain of PDL1 (Fc-cut) antigen (Q9NZQ7 19-238 limits assumed): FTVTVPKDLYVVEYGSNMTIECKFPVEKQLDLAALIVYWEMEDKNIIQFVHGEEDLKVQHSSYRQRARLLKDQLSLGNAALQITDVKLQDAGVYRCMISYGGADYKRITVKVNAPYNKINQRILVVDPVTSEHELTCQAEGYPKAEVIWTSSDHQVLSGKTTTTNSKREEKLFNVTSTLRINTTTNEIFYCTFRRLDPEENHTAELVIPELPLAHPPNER
Chain of PDL1 expressed on recombinant CHO cells (CHO-K1/PDL1; aAPC CHO-PDL1) (Q9NZQ7 19-290 limits assumed): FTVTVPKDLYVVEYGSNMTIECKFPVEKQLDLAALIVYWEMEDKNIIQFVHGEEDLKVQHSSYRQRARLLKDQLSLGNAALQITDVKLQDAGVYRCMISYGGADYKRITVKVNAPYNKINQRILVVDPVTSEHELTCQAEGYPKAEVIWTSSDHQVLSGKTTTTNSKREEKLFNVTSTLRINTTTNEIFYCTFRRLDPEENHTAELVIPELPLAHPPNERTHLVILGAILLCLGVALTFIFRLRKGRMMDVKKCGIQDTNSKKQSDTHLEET

Question: For Atezolizumab (antibody), which EC50 of the PD1/PDL1 Block Assay (luciferase fold of induction, Jurkat-PD-1-NFAT-Luc + aAPC CHO-PDL1) [1] is on record?
Answer: 6.04 mg/L

Question: Which results are given for Unimmunized serum?
Answer: OD450, serum 1:1K, well 1 of 2 (PDL1 (Fc-cut) antigen [2]): 0.176; OD450, serum 1:1K, well 2 of 2 (PDL1 (Fc-cut) antigen [2]): 0.166; OD450, serum 1:2K, well 1 of 2 (PDL1 (Fc-cut) antigen [2]): 0.194; OD450, serum 1:2K, well 2 of 2 (PDL1 (Fc-cut) antigen [2]): 0.213; OD450, serum 1:4K, well 1 of 2 (PDL1 (Fc-cut) antigen [2]): 0.207; OD450, serum 1:4K, well 2 of 2 (PDL1 (Fc-cut) antigen [2]): 0.236; OD450, serum 1:8K, well 1 of 2 (PDL1 (Fc-cut) antigen [2]): 0.205; OD450, serum 1:8K, well 2 of 2 (PDL1 (Fc-cut) antigen [2]): 0.236; OD450, serum 1:16K, well 1 of 2 (PDL1 (Fc-cut) antigen [2]): 0.232; OD450, serum 1:16K, well 2 of 2 (PDL1 (Fc-cut) antigen [2]): 0.249; OD450, serum 1:32K, well 1 of 2 (PDL1 (Fc-cut) antigen [2]): 0.224; OD450, serum 1:32K, well 2 of 2 (PDL1 (Fc-cut) antigen [2]): 0.253; OD450, serum 1:64K, well 1 of 2 (PDL1 (Fc-cut) antigen [2]): 0.201; OD450, serum 1:64K, well 2 of 2 (PDL1 (Fc-cut) antigen [2]): 0.224; OD450, serum 1:1K, well 1 of 2 (PDL1 (Fc-cut) antigen [3]): 0.189; OD450, serum 1:1K, well 2 of 2 (PDL1 (Fc-cut) antigen [3]): 0.176; OD450, serum 1:2K, well 1 of 2 (PDL1 (Fc-cut) antigen [3]): 0.145; OD450, serum 1:2K, well 2 of 2 (PDL1 (Fc-cut) antigen [3]): 0.159; OD450, serum 1:4K, well 1 of 2 (PDL1 (Fc-cut) antigen [3]): 0.124; OD450, serum 1:4K, well 2 of 2 (PDL1 (Fc-cut) antigen [3]): 0.12; OD450, serum 1:8K, well 1 of 2 (PDL1 (Fc-cut) antigen [3]): 0.107; OD450, serum 1:8K, well 2 of 2 (PDL1 (Fc-cut) antigen [3]): 0.116; OD450, serum 1:16K, well 1 of 2 (PDL1 (Fc-cut) antigen [3]): 0.118; OD450, serum 1:16K, well 2 of 2 (PDL1 (Fc-cut) antigen [3]): 0.12; OD450, serum 1:32K, well 1 of 2 (PDL1 (Fc-cut) antigen [3]): 0.125; OD450, serum 1:32K, well 2 of 2 (PDL1 (Fc-cut) antigen [3]): 0.118; OD450, serum 1:64K, well 1 of 2 (PDL1 (Fc-cut) antigen [3]): 0.141; OD450, serum 1:64K, well 2 of 2 (PDL1 (Fc-cut) antigen [3]): 0.115
